Reference: patent US20250313612A1 (Adimab, published 2025)

Tests used:
[1] = target: RSV F protein of recombinant mKate-RSV, subtype A (strain A2) (Respiratory syncytial virus subtype A …, UniProt P03420 26-574); test: cell-based or functional assay
[2] = target: RSV F protein of recombinant mKate-RSV, subtype B (18537) (Respiratory syncytial virus subtype B …, UniProt P13843 26-574); test: cell-based or functional assay
[3] = target: T1, RSV F ectodomain stabilized in the postfusion conformation (F ΔFP), subtype B (Respiratory syncytial virus subtype B, UniProt P13843 26-109; P13843 147-524); test: BLI, IgG on AHQ sensor, 100 nM antigen
T1 construct: extracellular domain; trimer; also called Postfusion subtype B; postF subtype B

[4] = target: T2, RSV F ectodomain stabilized in the postfusion conformation (F ΔFP), subtype A (Respiratory syncytial virus subtype A, UniProt P03420 26-109; P03420 147-524); test: BLI, IgG on AHQ sensor, 100 nM antigen
T2 construct: extracellular domain; trimer; furin-cleaved; also called Postfusion subtype A

| Binder | Neut IC50 subtype A [1] [µg/mL] | Neut IC50 subtype B [2] [µg/mL] | Kd [3] [nM] | Kd [4] [nM] |
| --- | --- | --- | --- | --- |
| ADI-14439 (antibody, V domains shown, full-length IgG (yeast-expressed); also called Antibody Number 2; Ab# 2) VH: QVQLVQSGAEVKKPGSSVRVSCRASGVTLTTVAVNWVRQVPGQGPEWIGGILVGLGKVRLAQKFENRATLRADTSSNTAYMELSGLRFEDTAVYYCAIIDPQDCTAASCFWVNWLDPWGQGTLVTVSS VL: EIVLTQSPGTLTLSPGETATLSCRASQSVLSGYLAWYQQKPGQAPRLLIYAASTRATDIPARFTGSGSATDFTLTISRLEPQDFAVYYCQQYGSAPITFGQGTRLEIK | > 10 | 4.12 | 16.2 | 5.16 |
| ADI-14447 (antibody, V domains shown, full-length IgG (yeast-expressed); also called Antibody Number 10; Ab# 10) VH: QVQLVQSGAEMKKPGSSVTVSCKASGVPFTSYTYSWVRQAPGQGLEWMGRVLPVIGSAKYPQKFQGTVTITADKSTSTIYLQLSSLRPEDTAIYFCAGSLLAGYDREFDSWGQGTLVTVSS VL: DIQMTQSPSSLSASVGDRITITCRASQGISNWLAWYQQKPGKAPKSLIYEASTLQSGVSSRFSGSGSGTHFTLTIASLQPEDFATYYCQQYYIYPLTFGGGTKLEIK | 0.143 | 0.372 | 0.271 | 0.339 |
| ADI-14449 (antibody, V domains shown, full-length IgG (yeast-expressed); also called Antibody Number 12; Ab# 12) VH: EVQLVESGGDLVKPGGSLRLSCEGSGFIFPNAWMSWVRQAPGKGLEWVGRIKSNTDGGTTDYGAPVKGRFTISRDDSTNTMYLHMNSLKTEDTAVYFCSTGPPYKYFDETGYSVVDYWGQGTLVTVSS VL: SYELTQPPSASGTPGQRVIISCSGSTSNSGYNYFYWYQQRPGTAPKLLIYGSDQRPSGVPDRFSGSQSGPSASLAISGLRSEDEAHYYCAAWDDNLSGPVFGGGTKLTVL | 0.193 | 0.182 | 0.462 | 0.204 |
| ADI-14457 (antibody, V domains shown, full-length IgG (yeast-expressed); also called Antibody Number 20; Ab# 20) VH: QVTLKESGPALVRPKQTLTLTCSFSGFSLDTQRTGVNWIRQSPGKALEWLARIDWDGNIYSSTSVRTKLSISKGTSKNQVVLTMTDVDPVDTATYYCARTLYYTSGGYYLNLFDYWGQGTLVTVSS VL: EIVMTQSPPSLSASVGDRVTITCRASQTIPSYVNWYQQISGKAPRLLIYAASLLQSGVPSRFSGSGSGTEFSLTISGLRPEDFGTYYCQQSYSSTPTFGQGTKVEIK | 0.2 | 0.251 | 0.461 | 0.38 |
| ADI-14484 (antibody, V domains shown, full-length IgG (yeast-expressed); also called Antibody Number 45; Ab# 45) VH: QVTLKESGPALVRPKQTLTLTCSFSGFSLDTQRTGVNWIRQSPGKALEWLARIDWDGNIYSSTSVRTKLSISKGTSKNQVVLTMTDVDPVDTATYYCARTLYYTSGGYYLNLFDYWGQGTLVTVSS VL: EIVMTQSPPSLSASVGDRVTITCRASQTIPSYVNWYQQISGKAPRLLIYAASLLQSGVPSRFSGSGSGTEFSLTISGLRPEDFGTYYCQQSYSSTPTFGQGTRLEIK | 0.448 | 0.169 | 0.394 | 0.389 |
| ADI-14453 (antibody, V domains shown, full-length IgG (yeast-expressed); also called Antibody Number 16; Ab# 16) VH: QITLKESGPTVVKPTQTLTLTCTFSGFSLNTRGMGVAWIRQPPGGALEWLALVDWDDDKRYSPSLRSRLTITKDTSKNQVLFTMTTMDPADTATYYCAHIGLYDRGGYYLFYFDFWGQGTLVTVSS VL: DIVLTQSPSSLSASVGDRVTITCRASQSIASYVNWFQQKPGKAPVLLMFASSILQSGVPPRFRGSGSGTDFTLTITSLQPEDFATYYCQHTYTTPYIFGRGTKVEIK | > 10 | > 10 | 0.228 | 0.261 |
| ADI-14450 (antibody, V domains shown, full-length IgG (yeast-expressed); also called Antibody Number 13; Ab# 13) VH: QVQLVQSGGGLVKPGGSRRLACAASGFIFRNAWMSWVRQAPGKGLEWVGRIKRTSEGGSVDYATPVQGRFSISRDDSRNTLYLQMHSLAPDDTAVYYCSTGPPYSYFDSTGYSVVDYWGQGTLVTVSS VL: QSVLTQPPSASGTPGQRVTISCSASSSNIGDNYFYWYQQLPGKAPTLLMYGSDQRSSGVPDRFSGSQSGTSASLAISGLRSEDEAAYYCAAWDDSLSGPVFGGGTQLTVL | 0.195 | 0.315 | 0.142 | 0.227 |
| ADI-14523 (antibody, V domains shown, full-length IgG (yeast-expressed); also called Antibody Number 83; Ab# 83) VH: EVQLVESGGGLVKPGGSLRLSCAASGFIFRNAWMSWVRQAPGKGLEWVGRIKRTSEGGSVDYATPVQGRFSISRDDSRNTLYLQMNSLETDDTAVYYCSTGPPYSYFDSSGYSVVDYWGQGTLVTVSS VL: QSVLTQPPSASGTPGQRVTISCSASSSNIGDNYFYWYQQLPGKAPTLLMYGSDQRSSGVPDRFSGSQSGTSASLAISGLRSEDEADYYCAAWDDSLSGPVFGGGTKLTVL | 0.239 | 0.151 | 0.131 | 0.192 |
| ADI-14513 (antibody, V domains shown, full-length IgG (yeast-expressed); also called Antibody Number 74; Ab# 74) VH: QVQLVQSGSEVKRPGSSVKVSCKASGVALTTVAVNWVRQVPGQGPEWIGGILIGFGKVRQAQKFENRVTFTADASRNTAYMELSGLRSEDTAVYYCAIIDPQDCTRASCFWVNWLAPWGHGTLVTVSS VL: DIRVTQSPGTLTLSPGERASLSCRASESILNGNLAWYQQKPGQAPRLLIYAASSRATDIPDRFSGSGSGTDFTLTISRLEPQDFAVYYCQQYGSAPITFGQGTRLEIK | 4.81 | 2.2 | 0.962 | 1.21 |
| ADI-14445 (antibody, V domains shown, full-length IgG (yeast-expressed); also called Antibody Number 8; Ab# 8) VH: EVQLLESGAVMKRPGSSVRVSCRASGVTLTTVSVNWVRQVPGQGPEWIGGILIGFGKVRQAQKFENRVTLTADASRNTAYMELSGLTSDDTAVYYCAIIDPQDCTRASCFWVNWLDPWGQGTLVTVSS VL: DIRMTQSPGTLTLSPGERATLSCRASQSILSGNLAWYQQKPGQAPRLLISAASTRATDIPDRFSGSGSGTDFTLTITRLEPQDFAVYYCQQYDSAPITFGQGTRLEIK | > 10 | 1.21 | 15.2 | 4.92 |
| ADI-14524 (antibody, V domains shown, full-length IgG (yeast-expressed); also called Antibody Number 84; Ab# 84) VH: EVQLVESGGGLVQPGGSLRLSCAASGFSFSDYSMNWVRQAPGKGLEWVSYITPSSRNKFYADSVRGRFTISRDNAENSLYLQMNSLRVEDTAVYYCVRSLHWGAAIERWDVWGQGTTVTVSS VL: EIVLTQSPGTLSLSPGERATLSCRASQSISSSFFAWYQQTPGQAPRLLMYATSSRATGIPDRFSGSGSGTDFTLTISRVEPEDFAVYYCQQSGSSPYTFGQGTKVEIK | 6.05 | 6 | 0.771 | 0.826 |
| ADI-14458 (antibody, V domains shown, full-length IgG (yeast-expressed); also called Antibody Number 21; Ab# 21) VH: QVQLVESGGGLVKPGGSLRLSCAASGFIFSNAWMSWVRQSPGKGLEWVGRIKTKTEGATTDHAAPLKGRFTISRDDSRNTLYLQMDSLTTEDTAVYFCTTGPPYSYFDSTGYSIVDYWGQGTLVTVSS VL: SYELTQPPAASGTPGQRVTISCSGSSSNIGSEYVLWYQQVPGTAPKLLIYNSHQRPSGVPDRISGSRSGTSASLAISGLRSEDEAHYYCASWDDSLSGPVFGGGTQLTVL | 0.161 | 0.104 | 0.126 | 0.196 |
| ADI-14454 (antibody, V domains shown, full-length IgG (yeast-expressed); also called Antibody Number 17; Ab# 17) VH: QVQLVQSGPTLVKPTQTLTLTCTFSGFSLSTRGVGVGWIRQPPGKALECLGFTYWDGDQFHSPSLKNRLTITKDTSKNQVVLRMTNMDPVDTATYFCVHSDLYDSGGYYLYYFDYWGQGTLVTVSS VL: DIQMTQSPSSLSASVGDRVTITCRASQTIASYLNWYQQRPGEAPKLLIYAASSLQSGVSSRFSGRGSGTDFTLTINILQPEDLATYFCQQAYSAPYTFGQGTKVEIK | 0.23 | 2.54 | 0.483 | 0.297 |
| ADI-14446 (antibody, V domains shown, full-length IgG (yeast-expressed); also called Antibody Number 9; Ab# 9) VH: QVQLVQSGAEVKKPGSSVKVSCEASGDTFTSYAVIWVRQTPGQGLEFMGSIIPIFQTINYAPKFQGRVTLSADGSTSTVFMELRNLRSEDTAIYFCATKRYCTSPSCHGLWYFNLWGRGTMVTVSS VL: ETTLTQSPISLSVTPGEPASISCRSSKSLLDSDDGNTYLDWYLQKPGQSPQILIYMLSYRASGVPDRFSGSGSGTDFTLKISRVEAEDVGVYYCMQRIEYPYTFGQGTKVEIK | 0.091 | 0.187 | 0.137 | 0.213 |
| ADI-14452 (antibody, V domains shown, full-length IgG (yeast-expressed); also called Antibody Number 15; Ab# 15) VH: QVQLVQSGAEVKKPGSSVKVSCEASGDTFTSYAVIWVRQAPGQGLEWMGSIIPIFQTINYAPKFQGRVTLSADGSTRTVYMELGSLRSEDTAIYFCATKRYCTSPSCHGLWYFNLWGRGTLVTVSS VL: DIVMTQSPLSLPVTPGEPASISCRSSKSLLDSDDGNTYLDWYLQKPGQSPQILIYMLSHRASGVPDRFSGSGSGTDFTLKISRVEAEDVGVYYCMQRVEYPYSFGQGTKVEIK | 0.076 | 0.157 | 0.139 | 0.217 |
| ADI-14511 (antibody, V domains shown, full-length IgG (yeast-expressed); also called Antibody Number 72; Ab# 72) VH: EVQLLESGAEVKKPGSSVKVSCKVAGGTFSDYAISWVRQAPGQGLEYLGGIIPAFKRAMYPRKFQDRVTITADESTSTAYMELRGLRSEDTALYYCARPAGDFGDLKWLRSPFDYWGQGTLVTVSS VL: DIVLTQSPATLSVSPGERATLSCRASEGVGINLAWYQQKPGQAPRLLIYGASTRATDIPARFSGSGSGTDFTLTISSLQSEDFAVYYCQQYNDWPPQLTFGPGTKVDIK | > 10 | 7.04 | 1.25 | 0.988 |
| ADI-14512 (antibody, V domains shown, full-length IgG (yeast-expressed); also called Antibody Number 73; Ab# 73) VH: EVQLVESGAEVKKPGSSVKVSCKVVGGSFSNYGISWVRQAPGQGPEWMGGIIPAFKTAKYAKKFEDRVTITADESTSTAYMEVSGLRSDDTALYYCARPERDFGHLKWLRSPFDYWGQGTLVTVSS VL: ETTLTQSPATLSVSPGERVTLSCRASQGVSINLAWYQQKPGQAPRLLIYGASTRATDIPARFSGSGSGTDFTLTISSLQSEDFAVYYCQQYNDWPPQLTFGPGTKVEIK | > 10 | > 10 | 0.587 | 2.67 |
